Patent US20260265379A1

Biological target: BTN3A expressed at the cell surface (human), O00481
Assay: cell-based or functional assay

BTN3A expressed at the cell surface (human), O00481, sequence (O00481 30-513): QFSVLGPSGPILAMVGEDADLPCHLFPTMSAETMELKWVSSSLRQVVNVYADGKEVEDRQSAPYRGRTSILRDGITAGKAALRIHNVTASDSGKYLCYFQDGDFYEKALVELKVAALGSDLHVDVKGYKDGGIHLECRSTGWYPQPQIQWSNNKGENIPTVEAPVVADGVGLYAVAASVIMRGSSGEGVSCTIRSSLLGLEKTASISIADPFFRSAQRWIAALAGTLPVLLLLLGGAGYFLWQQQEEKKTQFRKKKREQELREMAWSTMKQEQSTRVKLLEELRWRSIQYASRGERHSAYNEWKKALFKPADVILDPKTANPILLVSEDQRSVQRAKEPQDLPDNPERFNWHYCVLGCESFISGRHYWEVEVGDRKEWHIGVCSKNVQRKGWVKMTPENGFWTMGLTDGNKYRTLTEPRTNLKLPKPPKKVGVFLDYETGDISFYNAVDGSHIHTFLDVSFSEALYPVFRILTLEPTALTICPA

Row | Jurkat-Vy9Vo2 TCR MOP activation at 0.5 nM (fold-change to medium) | Jurkat-Vy9Vo2 TCR MOP activation at 5 nM (fold-change to medium) | Binder
1 | 0.9 | 1 | bsAb039 (bispecific antibody, not shown: small tags and cut ends; a dimerising Fc or GST) heavy (part 1 of 2): QVQLVQSGVEVKKPGASVKVSCKASGYTFTNYYMYWVRQAPGQGLEWMGGINPSNGGTNFNEKFKNRVTLTTDSSTTTAYMELKSLQFDDTAVYYCARRDYRFDMGFDYWGQGTTVTVSS heavy (part 2 of 2): GGGGSGGGGSGGGGSGGGGSDIQMTQSPSSLSASVGDRVTITCHASQNINVWLSWYQQKPGKAPKLLIYKASNLHTGVPSRFTGSGSGTDFTFTISSLQPEDIATYYCQQGQTYPYTFGQGTKLEIKGGGGSGGGGSGGGGSGGGGSQVQLVQSGAEVKKPGASVKLSCKASGYIFTRYYMYWVKQRPGQGLEWIGEINPNNGGTKFNEKFKNRATLTVDKSISTAYMELSRLRSDDTAVYYCSREDDYDGTPFAMDYWGQGTLVTVSS heavy: GGGGSGGGGSGGGGSGGGGSDIQMTQSPSSLSASVGDRVTITCHASQNINVWLSWYQQKPGKAPKLLIYKASNLHTGVPSRFTGSGSGTDFTFTISSLQPEDIATYYCQQGQTYPYTFGQGTKLEIKGGGGSGGGGSGGGGSGGGGSQVQLVQSGAEVKKPGASVKLSCKASGYIFTRYYMYWVKQRPGQGLEWIGEINPNNGGTKFNEKFKNRATLTVDKSISTAYMELSRLRSDDTAVYYCSREDDYDGTPFAMDYWGQGTLVTVSS light: EIVLTQSPATLSLSPGERATLSCRASKGVSTSGYSYLHWYQQKPGQAPRLLIYLASYLESGVPARFSGSGSGTDFTLTISSLEPEDFAVYYCQHSRDLPLTFGGGTKVEIKRTVAAPSVFIFPPSDEQLKSGTASVVCLLNNFYPREAKVQWKVDNALQSGNSQESVTEQDSKDSTYSLSSTLTLSKADYEKHKVYACEVTHQGLSSPVTKSFNRGEC
2 | 1.1 | 1 | bsAb042 (bispecific antibody, not shown: small tags and cut ends; a dimerising Fc or GST) heavy 1: QVQLVQSGVEVKKPGASVKVSCKASGYTFTNYYMYWVRQAPGQGLEWMGGINPSNGGTNFNEKFKNRVTLTTDSSTTTAYMELKSLQFDDTAVYYCARRDYRFDMGFDYWGQGTTVTVSS heavy 2: QVQLVQSGAEVKKPGASVKLSCKASGYIFTRYYMYWVKQRPGQGLEWIGEINPNNGGTKFNEKFKNRATLTVDKSISTAYMELSRLRSDDTAVYYCSREDDYDGTPFAMDYWGQGTLVTVSSGGGGSGGGGSGGGGSGGGGSDIQMTQSPSSLSASVGDRVTITCHASQNINVWLSWYQQKPGKAPKLLIYKASNLHTGVPSRFTGSGSGTDFTFTISSLQPEDIATYYCQQGQTYPYTFGQGTKLEIKGGGGSGGGGSGGGGSGGGGS light: EIVLTQSPATLSLSPGERATLSCRASKGVSTSGYSYLHWYQQKPGQAPRLLIYLASYLESGVPARFSGSGSGTDFTLTISSLEPEDFAVYYCQHSRDLPLTFGGGTKVEIKRTVAAPSVFIFPPSDEQLKSGTASVVCLLNNFYPREAKVQWKVDNALQSGNSQESVTEQDSKDSTYSLSSTLTLSKADYEKHKVYACEVTHQGLSSPVTKSFNRGECGGGGSGGGGSGGGGSGGGGSDIQMTQSPSSLSASVGDRVTITCHASQNINVWLSWYQQKPGKAPKLLIYKASNLHTGVPSRFTGSGSGTDFTFTISSLQPEDIATYYCQQGQTYPYTFGQGTKLEIKGGGGSGGGGSGGGGSGGGGSQVQLVQSGAEVKKPGASVKLSCKASGYIFTRYYMYWVKQRPGQGLEWIGEINPNNGGTKFNEKFKNRATLTVDKSISTAYMELSRLRSDDTAVYYCSREDDYDGTPFAMDYWGQGTLVTVSS
